Laboratory results as given in article PMC5080983 (Nature communications, 2015).
Residue numbers refer to the chain shown, from its start. Where no end group is shown, it is not given here. [ ]: non-standard residue; d: D form. Arg(Me2a) = CN(C)C(=N)NCCC[C@H](N)C(=O)O; Arg(Me2s) = CN=C(NC)NCCC[C@H](N)C(=O)O; fluorescent label = not defined here

Columns and labels:
Test in all cases: fluorescence polarisation
[1] = target: T1, histone H3 tail peptide (1–18) symmetrically dimethylated at Arg2 (H3R2me2s) (UniProt P68431 2-19)
T1 peptide (looked up): A[Arg(Me2s)]TKQTARKSTGGKAPRK

[2] = target: T2, histone H3 tail peptide (1–18) asymmetrically dimethylated at Arg2 (H3R2me2a) (UniProt P68431 2-19)
T2 peptide (looked up): A[Arg(Me2a)]TKQTARKSTGGKAPRK

GST-PHD1 W335A of KDM5A = target: T3, GST-PHD1 W335A of KDM5A (UniProt P29375 291-347, W335A)
T3 sequence (looked up): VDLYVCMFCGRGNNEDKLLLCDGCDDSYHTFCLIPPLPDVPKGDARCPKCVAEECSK

B1: GST-PHD1_(291–347) of KDM5A (domain or fragment, UniProt P29375 291-347, looked up)
chain: T3 sequence (looked up) with A45W
- fold reduction of binding affinity against unmodified H3 [1]: ~5 fold
- fold reduction of binding affinity against unmodified H3 [2]: ~5 fold

B2: histone H3 tail peptide H3_(1–18), unmethylated Lys4 (H3K4me0) (peptide, UniProt P68431 2-19, looked up)
peptide: ARTKQTARKSTGGKAPRK-{fluorescent label}
modifications: reading uncertain
- Kd (GST-PHD1 W335A of KDM5A): > 100 µM
